Test results as given in patent US20140370563A1, “COMPOSITIONS AND METHODS FOR THE RELIEF OF INHIBITION OF ALDEHYDE DECARBONYLASE” (priority 2011, published 2014).
Entries after “also recorded” stand apart in the source; their conditions may differ.

Key:
[1] = target: T1, aldehyde decarbonylase (ADC) (Prochlorococcus marinus, UniProt Q7V6D4); experiment: decarbonylase assay (octadecanal to alkane, GC/MS); type: biochemical
T1 construct: made in house; host or cells: E. coli BL21 (DE3) Gold
T1 sequence (Q7V6D4 1-243): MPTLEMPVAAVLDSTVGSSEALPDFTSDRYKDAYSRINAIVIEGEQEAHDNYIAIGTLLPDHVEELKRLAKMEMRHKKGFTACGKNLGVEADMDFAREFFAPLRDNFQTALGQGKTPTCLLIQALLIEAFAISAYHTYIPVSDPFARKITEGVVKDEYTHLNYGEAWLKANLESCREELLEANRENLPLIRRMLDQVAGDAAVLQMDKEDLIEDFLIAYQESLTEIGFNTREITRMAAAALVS
Method: (§1) Typical decarbonylase assays were 0.25 mL and contained 25 mM Tris-Cl pH 7.5, 0.1% Triton X-100, 1 mM DTT, 50 μg/mL maize root ferredoxin and 1 U/mL anabaena vegetative ferredoxin reductase (Cahoon et al. 1997, PNAS 94:4872-4877.), 2 mM NADPH, 200 μM octadecanal, and between 0.2-5 μM ADC or CAT-ADC. A 20 mM octadecanal stock was freshly prepared by sonicating powder in 10% Triton X-100. Octadecanal was obtained from ISCA technologies. When indicated catalase (Sigma C-9322) was added to a final concentration of 4 mg/mL from a 20 mg/mL stock dissolved in 100 mM PIPES pH 6.0. For assays performed in 100% oxygen a reaction master mix without NADPH and a separate NADPH solution were prepared by repeated purging of the sample cell with 100% O2 and vacuum with the use of a Schlenk line. Reactions were initialed by addition of either enzyme, substrate, or NADPH and were incubated at 37° C. and stopped by the addition of an equal volume of ethyl acetate. The organic phase was separated by GC/MS on an HP-5 ms column with oven temperature increasing from 75° C. to 320° C. at 40° C./min with a flow rate of 1.3 ml/min. Substrate and product were identified by comparison to authentic standards.

[2] = substrate: CCCCCCCCCCCCCC=O; experiment: Decarbonylase assay: kinetics of aldehyde decarbonylase activity with aldehyde substrates of different lengths (FIG. 8); recombinant ADC, GenBank CAE21406.1, with N-terminal MGSDKIHHHHHHENLYFQG tag, expressed in E. coli BL21 (DE3) Gold; no mutations stated; type: biochemical, Prochlorococcus marinus; settings: other: aldehyde as substrate, typical assay 25 mM Tris-Cl pH 7.5, 0.1% Triton X-100, ferredoxin, ferredoxin reductase, 2 mM NADPH, 37° C., GC/MS
From the text: (§2) A catalase transcriptional fusion was produced as described below. […] The Catalase used was Ec catalase (GenBank Accession No. U00092.2) though the present invention is not limited to the use of this particular catalase. The ADC used was Pm ADC (GenBank Accession No. CAE21406.1). The ADC contains a diiron site. ADCs utilizing other metals are also suitable for use. For example, ribonucleotide reductase, which is normally a diiron protein can also use Mn (manganese) (Metallomics, 2011, 3(2):110-120, ePub […] Jan. 25). The catalase and ADC sequences were connected by a 20 amino acid linker: […] [SEQ ID NO: 8]. A 6×His-tag was added to the 3′ end for simplified purification. The recombinant catalase-ADC fusion (hybrid) protein (CAT-ADC or CA) was produced using the T7 expression system in E. coli and was purified using Ni-NTA agarose resin.
(§3) The pSpeedET T7 inducible bacterial expression plasmid containing the coding sequence for Prochlorococcus marinus aldehyde decarbonylase (ADC, GenBank: CAE21406.1 [SEQ ID NO: 1]) fused with an N-terminal MGSDKIHHHHHHENLYFQG [SEQ ID NO: 2] tag as constructed by the Joint Center for Structural Genomics, was obtained from the DNASU plasmid repository. The E. coli catalase (katE GenBank: U00096.2 [SEQ ID NO: 3]) ADC fusion protein (CAT-ADC) was constructed by overlap extension PCR. Primers for catalase were: forward—[…] [SEQ ID NO: 4] and reverse—[…] TTTGTCAATCTTAGG [SEQ ID NO: 5]. Primers for ADC were: forward—[…] TTGAGATGCCT [SEQ ID NO: 6] and reverse—[…] [SEQ ID NO: 7]. The final construct contained catalase followed by a 20 amino acid flexible linker domain ([…] [SEQ ID NO: 8]) (Martin et al 2005, Nature 473:1115-1120.) followed by ADC and finally a C-terminal hexahistidine tag and was cloned into the NdeI and XhoI sites of pET24b.
(§4) E. coli BL21 (DE3) Gold cells containing various plasmids were grown at 37° C. to an OD600 of 0.4, were induced with 0.4 mM IPTG, and were grown for an additional 4 hours at 37° C. for ADC or 30° C. for CAT-ADC. Cell pellets were suspended in 20 mM Tris-Cl pH 7.5, 150 mM NaCl, 20 mM imidazole, 5 mM MgCl2, and 0.1 mg/mL DNase and were lysed using a French pressure cell. Cellular debris was removed by centrifugation at 40,000×g for 20 min. Recombinant proteins were purified from the soluble fraction with Ni-NTA resin (Qiagen). Wash and elution buffers were 20 mM Tris-Cl pH 7.5, 300 mM NaCl, and 25 or 250 mM imidazole, respectively. Eluted proteins were immediately exchanged into 20 mM HEPES pH 7.8, 200 mM NaCl using PD-10 desalting columns. Protein concentration was determined with Bradford Assay (Sigma).
as §1

[3] = substrate: CCCCCCCCCCCC=O; experiment: as above; type: biochemical, Prochlorococcus marinus; settings: other: aldehyde as substrate, typical assay 25 mM Tris-Cl pH 7.5, 0.1% Triton X-100, ferredoxin, ferredoxin reductase, 2 mM NADPH, 37° C., GC/MS
From the text: as §2, §3, §4, §1

[4] = substrate: CCCCCCCC=O; experiment: as above; type: biochemical, Prochlorococcus marinus; settings: other: aldehyde as substrate, typical assay 25 mM Tris-Cl pH 7.5, 0.1% Triton X-100, ferredoxin, ferredoxin reductase, 2 mM NADPH, 37° C., GC/MS
From the text: as §2, §3, §4, §1

[5] = substrate: CCCCCCCCCCCCCCCCCC=O; experiment: as above; type: biochemical, Prochlorococcus marinus; settings: other: aldehyde as substrate, typical assay 25 mM Tris-Cl pH 7.5, 0.1% Triton X-100, ferredoxin, ferredoxin reductase, 2 mM NADPH, 37° C., GC/MS
From the text: as §2, §3, §4, §1

[6] = substrate: CCCCCCCC/C=C\CCCCCCCC=O; experiment: as above; type: biochemical, Prochlorococcus marinus; settings: other: aldehyde as substrate, typical assay 25 mM Tris-Cl pH 7.5, 0.1% Triton X-100, ferredoxin, ferredoxin reductase, 2 mM NADPH, 37° C., GC/MS
From the text: as §2, §3, §4, §1

[7] = substrate: CCCCCCCCCCCCCCCC=O; experiment: as above; type: biochemical, Prochlorococcus marinus; settings: other: aldehyde as substrate, typical assay 25 mM Tris-Cl pH 7.5, 0.1% Triton X-100, ferredoxin, ferredoxin reductase, 2 mM NADPH, 37° C., GC/MS
From the text: as §2, §3, §4, §1

[8] = substrate: CCCCCCCCCC=O; experiment: as above; type: biochemical, Prochlorococcus marinus; settings: other: aldehyde as substrate, typical assay 25 mM Tris-Cl pH 7.5, 0.1% Triton X-100, ferredoxin, ferredoxin reductase, 2 mM NADPH, 37° C., GC/MS
From the text: as §2, §3, §4, §1

[9] = target: T1, aldehyde decarbonylase (ADC); settings: in the absence of catalase; Warui et al. 2011; cited from earlier work

Q: What does the source list for OO [H2O2, hydrogen peroxide, reference compound]?
A: inhibition of ADC by H2O2 in low oxygen atmosphere ([1]; 4% (50 μM) atmosphere): enhanced; inhibition of ADC by H2O2 in oxygen atmosphere ([1]; 100% O2 (1250 μM) atmosphere, FIG. 2): lessened; inhibition of ADC activity by H2O2 ([1]; H2O2 added to decarbonylase assays, FIG. 1A / FIG. 2): selectively inhibited; also recorded: increasing inhibition

B1: aldehyde decarbonylase (ADC) (Prochlorococcus marinus str. MIT 9313) (protein)
chain: MPTLEMPVAAVLDSTVGSSEALPDFTSDRYKDAYSRINAIVIEGEQEAHDNYIAIGTLLPDHVEELKRLAKMEMRHKKGFTACGKNLGVEADMDFAREFFAPLRDNFQTALGQGKTPTCLLIQALLIEAFAISAYHTYIPVSDPFARKITEGVVKDEYTHLNYGEAWLKANLESCREELLEANRENLPLIRRMLDQVAGDAAVLQMDKEDLIEDFLIAYQESLTEIGFNTREITRMAAAALVS
notes: … (His6 tag) (N); made in house; host or cells: E. coli BL21 (DE3) Gold
Q: With B1 as the molecule, how does the Km [2] read?
A: Its Km is 18.9 ± 1.7 µM.

Q: What about the Km [3] of the same molecule?
A: The Km was 45.3 ± 18.5 µM.

Q: And the Km [4]?
A: Its Km is 27.7 ± 9.9 µM.

Q: And the Km [5]?
A: The Km was 41.3 ± 4.8 µM.

Q: And the Km [6]?
A: Its Km is 44.4 ± 7.2 µM.

Q: And the Km [7]?
A: The Km was 30.1 ± 4.2 µM.

Q: What about the Km [8] of the same molecule?
A: The Km was 29.5 ± 6.2 µM.

B2: ADC: Prochlorococcus marinus aldehyde decarbonylase, GenBank CAE21406.1, N-terminal His tag (protein, UniProt Q7V6D4 1-243, looked up)
Aldehyde decarbonylase: MPTLEMPVAAVLDSTVGSSEALPDFTSDRYKDAYSRINAIVIEGEQEAHDNYIAIGTLLPDHVEELKRLAKMEMRHKKGFTACGKNLGVEADMDFAREFFAPLRDNFQTALGQGKTPTCLLIQALLIEAFAISAYHTYIPVSDPFARKITEGVVKDEYTHLNYGEAWLKANLESCREELLEANRENLPLIRRMLDQVAGDAAVLQMDKEDLIEDFLIAYQESLTEIGFNTREITRMAAAALVS
modifications: N-terminal His tag
notes: Prochlorococcus marinus aldehyde decarbonylase, GenBank CAE21406.1, N-terminal His tag
Q: For B2, which “turnovers of ADC before it becomes inactive” value [9] is on record?
A: The value was “approximately three”.

Q: And the “sensitivity of decarbonylase activity to H2O2 inhibition” value ([1]; 200 μM substrate, 1 mM H2O2 added, FIG. 6A)?
A: Its value is “inhibited by H2O2”.

Q: And the “decarbonylase activity with or without added catalase” value ([1]; 200 μM substrate, excess NADPH, ferredoxin, FNR, FIG. 6A)?
A: Its value is “highest activity only when catalase was added”.

Q: And the “time after which ADC activity was inhibited” value ([1]; without catalase, FIG. 1B)?
A: Its value is “about 15 min”.

Q: What about the “turnovers until ADC activity was inhibited” value ([1]; without catalase, FIG. 1B) of the same molecule?
A: Its value is “about 3 turnovers”.

B3: catalase: catalase enzyme (Sigma C-9322) added at 4 mg/mL; converts hydrogen peroxide to water and oxygen (protein, UniProt P00432 2-527, looked up)
Catalase: ADNRDPASDQMKHWKEQRAAQKPDVLTTGGGNPVGDKLNSLTVGPRGPLLVQDVVFTDEMAHFDRERIPERVVHAKGAGAFGYFEVTHDITRYSKAKVFEHIGKRTPIAVRFSTVAGESGSADTVRDPRGFAVKFYTEDGNWDLVGNNTPIFFIRDALLFPSFIHSQKRNPQTHLKDPDMVWDFWSLRPESLHQVSFLFSDRGIPDGHRHMNGYGSHTFKLVNANGEAVYCKFHYKTDQGIKNLSVEDAARLAHEDPDYGLRDLFNAIATGNYPSWTLYIQVMTFSEAEIFPFNPFDLTKVWPHGDYPLIPVGKLVLNRNPVNYFAEVEQLAFDPSNMPPGIEPSPDKMLQGRLFAYPDTHRHRLGPNYLQIPVNCPYRARVANYQRDGPMCMMDNQGGAPNYYPNSFSAPEHQPSALEHRTHFSGDVQRFNSANDDNVTQVRTFYLKVLNEEQRKRLCENIAGHLKDAQLFIQKKAVKNFSDVHPEYGSRIQALLDKYNEEKPKNAVHTYVQHGSHLSAREKANL
Q: With B3 as the molecule, how does the “relief of inhibition by catalase in all electron transport systems studied” value ([1]; Maize FNR/anabaena Fd, Spinach FNR/ferredoxin, PMS/NADH, FIG. 10) read?
A: The value was “relieves the inhibition”.

Q: And the “relief of H2O2 inhibition of ADC by added catalase” value ([1]; catalase added, 0, 1 or 10 mM H2O2 (FIG. 3), FIG. 1B)?
A: The value was “restoration of ADC activity; also recorded: effective in overcoming the H2O2 induced inhibition of ADC”.

Q: And the “turnovers of the ADC reaction in the presence of catalase” value ([1]; excess aldehyde substrate, NADPH, ferredoxin NADPH reductase and ferredoxin, 16 hrs (FIG. 9))?
A: Its value is “greater than 150 turnovers”.
